Measurements from US20170022281A1 (AbbVie / Abbott, published 2017).

T1: rat PRLR on Nb2-11 rat lymphoma cells (rat, UniProt P05710 20-610)
T1 sequence (looked up): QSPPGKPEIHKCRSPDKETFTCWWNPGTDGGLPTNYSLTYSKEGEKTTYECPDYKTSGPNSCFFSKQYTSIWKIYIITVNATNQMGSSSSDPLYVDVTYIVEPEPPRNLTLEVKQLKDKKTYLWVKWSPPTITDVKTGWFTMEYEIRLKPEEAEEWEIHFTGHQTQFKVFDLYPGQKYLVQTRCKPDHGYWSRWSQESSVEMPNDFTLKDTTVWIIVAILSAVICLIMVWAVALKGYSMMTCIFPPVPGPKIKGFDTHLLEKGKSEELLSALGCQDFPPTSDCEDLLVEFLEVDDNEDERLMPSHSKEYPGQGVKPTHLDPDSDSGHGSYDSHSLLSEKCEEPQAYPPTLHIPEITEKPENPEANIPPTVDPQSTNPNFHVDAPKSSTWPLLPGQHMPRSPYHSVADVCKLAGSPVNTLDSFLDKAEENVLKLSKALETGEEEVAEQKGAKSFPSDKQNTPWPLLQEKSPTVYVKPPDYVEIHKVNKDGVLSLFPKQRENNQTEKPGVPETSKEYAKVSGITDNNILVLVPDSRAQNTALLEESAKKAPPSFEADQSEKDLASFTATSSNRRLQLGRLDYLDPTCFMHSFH

T2: human PRLR (Biacore antigen) (human, UniProt P16471 25-234, limits assumed)
T2 construct: The construct injected over captured antibody is not described (a soluble form is likely); also called huPRLR
T2 sequence: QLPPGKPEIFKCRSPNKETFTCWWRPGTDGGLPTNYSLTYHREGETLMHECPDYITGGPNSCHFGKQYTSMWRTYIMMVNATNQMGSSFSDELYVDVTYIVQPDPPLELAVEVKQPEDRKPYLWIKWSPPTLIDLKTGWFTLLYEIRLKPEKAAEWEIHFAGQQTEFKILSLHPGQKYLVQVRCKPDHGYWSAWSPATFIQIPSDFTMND


Tests used:
[1] = molecular target: T1, rat PRLR on Nb2-11 rat lymphoma cells; assay: cell-based or functional assay
[2] = molecular target: T2, human PRLR (Biacore antigen); assay: SPR Biacore

| Binder | Nb2-11 proliferation IC50 [1] [µg/mL] | fold decrease in affinity against chAb7 [2] [fold] |
| --- | --- | --- |
| LFA102 (antibody, human IgG1, kappa, V domains shown, humanized IgG1 kappa comparator (WO 2008022295)) VH: EVQLVESGGGLVQPGGSLRLSCAVSGFTFSSYGMSWVRQAPGKRLEWVATVSSGGTYTYYPDSVKGRFTISRDNSKNTLYLQMNSLRAEDTAMYYCARHRGNYYATYYYAMDYWGQGTLVTVSS VL: DIVLTQSPDSLAVSLGERATINCKASKSVSTSGYTYMHWYQQKPGQPPKLLIYLASNRESGVPDRFSGSGSGTDFTLTISPVQAEDVATYYCQHSGELPPSFGQGTKLEIKR | 0.93 |  |
| Ab39 (antibody, human IgG1, kappa, V domains shown, humanized from Ab7; G1; also called Ab4 HC.1a and Ab4 LC.1a) VH: EVQLVQSGAEVKKPGSSVKVSCKASGYTFTSYWIHWVRQAPGQGLEWIGEIDPSDSYTNYNQKFKGRATLTVDKSSSTAYMELSSLRSEDTAVYYCARSFFTNWFAYWGQGTLVTVSS VL: DVVMTQTPLSLSVTPGQPASISCRSSQSLVHSNGNTYLHWYLQKPGQSPQLLIYKVSNRFSGVPDRFSGSGSGTDFTLKISRVEAEDVGVYFCSQSTHVPFTFGGGTKVEIKR |  | ~22 |
| Ab5 (antibody, V domains shown, murine monoclonal, isotype G2a; also called murine Ab5) VH: QVQLQQPGAELVRPGTSVKLSCKASGYTFTSFWMHWVKQRPGQGLEWIGVIDPSDTYTNYNQKFKGKATLTVDTSSSTAYMQLSSLTSEDSAVYYCARGDYSNWFTYWGQGTLVTVSA VL: DVVMTQTPLSLPVSLGDQASISCRSSQRLVHSNGNTYLHWYLQKPGQSPKLLIYKVSNRFSGVPDRFSGSGSGTDFTLKISRVEAEDLGVYFCSQSTHVPWTFGGGTKLEIK | 0.91 |  |
| Ab11 (antibody, V domains shown, murine monoclonal, isotype G1; also called murine Ab11) VH: EVKLVESGGGLVQPGGSLKLSCAASGFTFSDYYMFWVRQTPEKSLEWVAYISNGGGSTYYPDTVKGRFTISRDNAKNTLYLQMSRLKSEDTAMYYCSRQLFYYGSRGAMGYWGQGTSVTVSS VL: DVLMTQTPLSLPVSLGDQASISCRSSQSIVHSNGNTYLEWYLQKPGQSPKLLIYKVSNRFSGVPDRFSGSGSGTDFTLKISRVEAEDLGVYYCFQGSHVPFTFGSGTKLEIK | > 30 |  |
| chAb5 (antibody, human IgG1, kappa, V domains shown, chimeric, murine variable and human G1/kappa constant regions) VH: QVQLQQPGAELVRPGTSVKLSCKASGYTFTSFWMHWVKQRPGQGLEWIGVIDPSDTYTNYNQKFKGKATLTVDTSSSTAYMQLSSLTSEDSAVYYCARGDYSNWFTYWGQGTLVTVSA VL: DVVMTQTPLSLPVSLGDQASISCRSSQRLVHSNGNTYLHWYLQKPGQSPKLLIYKVSNRFSGVPDRFSGSGSGTDFTLKISRVEAEDLGVYFCSQSTHVPWTFGGGTKLEIKT | 0.69 |  |
| Ab7 (antibody, V domains shown, murine monoclonal, isotype G1; also called murine Ab7) VH: QVQLQQPGAELVMPGTSVKLSCKASGYTFTSYWIHWVKQRPGQGLEWIGEIDPSDSYTNYNQKFKGKATLTVDRSSSTAYMQLSSLTSEDSAVYYCGRSFFTNWFAYWGQGTLVTVSA VL: DVVMTQTPLSLPVSLGDQASISCRSSQSLVHSNGNTYLHWYLQKPGQSPKLLIYKVSNRFSGVPDRFSGSGSGTDFTLKINRVEAEDLGVYFCSQSTHVPFTFGSGTKLEIK | 4.42 |  |
| Ab13 (antibody, V domains shown, murine monoclonal, isotype G2a; also called murine Ab13) VH: QVQLQQPGAELVRPGTSVKLSCKASGYTFTSFWMHWVKQRPGQGLEWIGVIDPSDSHTNYNQKFKGKATLTVNTSSSTAYMHLSSLTSEDSAVYYCARGDYSNWFTYWGQGTLVTVSA VL: DVVMTQTPFSLPVSLGDQASISCRSSQSLVHSNGNTYLHWYLQKPGQSPKLLIYKVSNRFSGVPDRFSGSGSGTDFTLKISRVEAEDLELYFCSQSTHVPWTFGGGTKLEIK | 7.56 |  |
| chAb7 (antibody, human IgG1, kappa, V domains shown, chimeric, murine variable and human G1/kappa constant regions) VH: QVQLQQPGAELVMPGTSVKLSCKASGYTFTSYWIHWVKQRPGQGLEWIGEIDPSDSYTNYNQKFKGKATLTVDRSSSTAYMQLSSLTSEDSAVYYCGRSFFTNWFAYWGQGTLVTVSA VL: DVVMTQTPLSLPVSLGDQASISCRSSQSLVHSNGNTYLHWYLQKPGQSPKLLIYKVSNRFSGVPDRFSGSGSGTDFTLKINRVEAEDLGVYFCSQSTHVPFTFGSGTKLEIKT | 16.8 |  |
| Ab6 (antibody, V domains shown, murine monoclonal, isotype G1; also called murine Ab6) VH: QVQLQQPGAELVMPGSSVKLSCKASGYTFTTYWMHWVKQRPGQGLEWIGEIDPSDSYSNYNQKFKDKATLTVDKSSSTAYMQLSSLTSEDSAVYYCARNGGLGPAWFSYWGQGTLVTVSA VL: DIVMTQSQKFMSTTVGDRVSITCKASQYVGTAVAWYQQKPGQSPKLLIYSASNRYTGVPDRFTDSGSGTDFTLTISNLQSEDLADYFCQQYSSYPWTFGGGTKLEIK | > 30 |  |
| Ab10 (antibody, V domains shown, murine monoclonal, isotype G2a; also called murine Ab10) VH: EVQLHQSGPELVKPGASVKISCKASGYTFTDYNMHWMKQSHGKSLEWIGYFYPYNGGTGYNQEFKNKATLTVDISSSTAYMELRRLTSEDSAVYYCARGGWGIYYAMDYWGQGTSVTVSS VL: DIQMTQSPASLSASVGETVTITCRASENIYSYLTWYQQKQGKSPQLLVYNAKTLAEGVPSRFSGSGSGTQFSLKINSLQPEDFGSYHCQHHSVTPLTFGAGTKLELK | > 30 |  |
